Assay results published in PMC12462528, “Molecular basis of ParA ATPase activation by the CTPase ParB during bacterial chromosome segregation” (Nature Communications, 2025).
Numbering of substitutions follows the chain as printed. Names may count otherwise. Each block holds one molecule with its values, some of them ahead of it.

Key:
[1] = tested on: ParA (His6-ParA) (Myxococcus xanthus); assay: BLI; conditions: 1 mM ATP, BLI: 25 mM HEPES/KOH pH 7.6, 100 mM KCl (150 or 500 mM where stated), 10 mM MgSO4, 1 mM DTT, 10 mM (so in the source) BSA, 0.01% Tween 20, temperature not stated
[2] = target: T1, ParA-D60A D60A (Myxococcus xanthus) (UniProt Q1CVJ3); assay: BLI; conditions: BLI: 25 mM HEPES/KOH pH 7.6, 100 mM KCl (150 or 500 mM where stated), 10 mM MgSO4, 1 mM DTT, 10 mM (so in the source) BSA, 0.01% Tween 20; temperature not stated
T1 sequence: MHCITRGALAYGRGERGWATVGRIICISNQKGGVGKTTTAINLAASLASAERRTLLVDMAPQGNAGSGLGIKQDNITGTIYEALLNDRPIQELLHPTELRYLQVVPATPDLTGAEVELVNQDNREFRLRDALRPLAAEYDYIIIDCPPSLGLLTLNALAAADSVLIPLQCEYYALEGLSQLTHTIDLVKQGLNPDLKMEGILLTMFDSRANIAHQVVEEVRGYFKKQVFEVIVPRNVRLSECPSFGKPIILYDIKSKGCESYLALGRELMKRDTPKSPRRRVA

[3] = target: T2, ParA-R238E (ParA*) R238E (Myxococcus xanthus) (UniProt Q1CVJ3); assay: BLI; conditions: BLI: 25 mM HEPES/KOH pH 7.6, 100 mM KCl (150 or 500 mM where stated), 10 mM MgSO4, 1 mM DTT, 10 mM (so in the source) BSA, 0.01% Tween 20; temperature not stated
T2 sequence: T1 sequence with A60D, R238E

[4] = target: T3, ParA (His6-ParA) (Myxococcus xanthus) (UniProt Q1CVJ3); assay: BLI; conditions: BLI: 25 mM HEPES/KOH pH 7.6, 100 mM KCl (150 or 500 mM where stated), 10 mM MgSO4, 1 mM DTT, 10 mM (so in the source) BSA, 0.01% Tween 20; temperature not stated
T3 sequence: T1 sequence with A60D

[5] = target: T4, ParB-Q52A (ParB*) Q52A (Myxococcus xanthus) (UniProt Q1CVJ4); assay: BLI; conditions: BLI: 25 mM HEPES/KOH pH 7.6, 100 mM KCl (150 or 500 mM where stated), 10 mM MgSO4, 1 mM DTT, 10 mM (so in the source) BSA, 0.01% Tween 20; temperature not stated
T4 sequence: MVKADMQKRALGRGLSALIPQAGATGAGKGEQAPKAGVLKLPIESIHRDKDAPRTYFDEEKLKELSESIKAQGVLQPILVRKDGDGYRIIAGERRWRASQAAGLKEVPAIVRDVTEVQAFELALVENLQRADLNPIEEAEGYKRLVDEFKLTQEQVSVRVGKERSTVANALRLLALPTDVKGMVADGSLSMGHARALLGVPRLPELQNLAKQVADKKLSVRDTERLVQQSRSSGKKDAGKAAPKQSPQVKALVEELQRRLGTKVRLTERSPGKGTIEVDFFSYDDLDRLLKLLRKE

[6] = target: T5, ParB delta21 del1-21 (Myxococcus xanthus) (UniProt Q1CVJ4); assay: BLI; conditions: BLI: 25 mM HEPES/KOH pH 7.6, 100 mM KCl (150 or 500 mM where stated), 10 mM MgSO4, 1 mM DTT, 10 mM (so in the source) BSA, 0.01% Tween 20; temperature not stated
T5 sequence: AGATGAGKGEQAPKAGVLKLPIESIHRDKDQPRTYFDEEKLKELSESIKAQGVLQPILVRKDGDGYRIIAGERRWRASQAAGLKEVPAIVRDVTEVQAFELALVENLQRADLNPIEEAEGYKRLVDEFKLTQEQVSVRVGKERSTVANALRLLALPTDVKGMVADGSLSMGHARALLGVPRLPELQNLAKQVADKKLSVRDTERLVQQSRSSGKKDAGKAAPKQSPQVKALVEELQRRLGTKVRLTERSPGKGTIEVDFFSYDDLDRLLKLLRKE

[7] = target: T6, ParB (Myxococcus xanthus) (UniProt Q1CVJ4); assay: BLI; conditions: BLI: 25 mM HEPES/KOH pH 7.6, 100 mM KCl (150 or 500 mM where stated), 10 mM MgSO4, 1 mM DTT, 10 mM (so in the source) BSA, 0.01% Tween 20; temperature not stated
T6 sequence: T4 sequence with A52Q

ParB-Q52A = target: T7, ParB-Q52A (Myxococcus xanthus DK1622, UniProt Q1CVJ4 1-296, Q52A); assay: BLI; ParB-Q52A (10 µM) loaded on closed parS DNA on the biosensor; ParA variants (5 µM) in solution with ATP (1 mM) and 500 mM KCl; conditions: both partners purified
T7 construct: ParB of Myxococcus xanthus DK1622, variant lacking CTPase activity; Closed clamps formed with CTP and parS DNA; also called CTP hydrolysis-deficient ParB variant; source: E. coli Rosetta(DE3)pLysS, purified (as wild-type ParB)
T7 sequence (looked up): T4 sequence

[8] = target: the molecule itself; assay: SEC; ParA proteins at 2.5 mg/mL (75 µM) in 25 mM Tris/HCl, 200 mM KCl, 5 mM MgSO4, 2 mM DTT, pH 7.4; Superdex 75 3.2/300; monomer to dimer
ParB (wild type) = target: T8, ParB (wild type) (Myxococcus xanthus DK1622, UniProt Q1CVJ4 1-296); assay: BLI; double-biotinylated 234-bp parS DNA on streptavidin biosensor, loaded with ParB or its derivatives (10 µM) and 1 mM CTPγS; ParA-R238E variants in solution with 1 mM ATP; 25 mM HEPES/KOH pH 7.6, 100 mM KCl, 10 mM MgSO4, 1 mM DTT; apparent KD; conditions: both partners purified
T8 construct: ParB of Myxococcus xanthus DK1622, translation product of ORF MXAN_7476; In the BLI assays loaded as a closed clamp on parS-containing DNA with CTPγS; also called M. xanthus ParB; wild-type ParB; source: E. coli Rosetta(DE3)pLysS, purified (HisTrap HP, Ulp1 cleavage, HiTrap SP HP)
T8 sequence (looked up): T4 sequence with A52Q

ParB-Q52A-R13A = target: T9, ParB-Q52A-R13A (Myxococcus xanthus DK1622, UniProt Q1CVJ4 1-296, Q52A | R13A); assay: BLI; ParB-Q52A variants loaded on closed parS DNA on the biosensor with CTP; ParA-R238E (5 µM) in solution with ATP and CTP (1 mM each); conditions: both partners purified
T9 construct: ParB of Myxococcus xanthus DK1622, ParB-Q52A variant lacking the conserved residue R13; also called ParB* R13A; R13A variant; source: E. coli Rosetta(DE3)pLysS, purified (as wild-type ParB)
T9 sequence (looked up): T4 sequence with R13A

ParB-Q52A-R13K = target: T10, ParB-Q52A-R13K (Myxococcus xanthus DK1622, UniProt Q1CVJ4 1-296, Q52A | R13K); assay: as above; conditions: both partners purified
T10 construct: ParB of Myxococcus xanthus DK1622, ParB-Q52A variant lacking the conserved residue R13; also called ParB* R13K; R13K variant; source: E. coli Rosetta(DE3)pLysS, purified (as wild-type ParB)
T10 sequence (looked up): T4 sequence with R13K

[9] = target: the molecule itself; assay: crystal structure; His6-ParA_(21-274)-D60A (1 mM) with 10 mM ATP and 5 mM ParB_(1-20), sitting drop, 20 °C; crystals held only the ParA dimer with ATP

Molecule: 234-bp parS fragment, closed on biosensor
- Kd ([1]; 150 uM ParB1-20 peptide): 400 nM
- Kd ([1]; no ParB1-20 peptide): 7800 nM

Molecule: TCCGCTTGGCGTGAGTTCCTGACGCTTGGTGGGAAGGATGCGCGTGCTGATGCGTGCACCTCAGTGAAGTGGATGGCGCGGCTGCTCATGCGCGGGTTGCTCAGCGCCTGTTCCACGTGGAACGCGGGATGGATTGATGGTGGGCACGCGCGCAGCGCCGGAGAGTTCGCTGACGGCTCCGCGTTCAGGCTCGTGATGCGCTCATGGTTCATGGAGTGGTGAGTGCTCCACCGG (double strand) [234-bp parS fragment, closed on biosensor]
- binding [2]: binds
- binding [3]: no binding
- Kd [4]: 400 nM
- binding [5]: binds
- binding [6]: binds
- binding [7]: binds

- binding result (ParB-Q52A): binds
B1: ParA (wild type) (natural protein, Myxococcus xanthus DK1622, UniProt Q1CVJ3 1-283, looked up)
chain: T1 sequence with A60D
notes: ParA of Myxococcus xanthus DK1622, translation product of ORF MXAN_7477; No tag cleavage step is described; also called His6-ParA; wild-type ParA; source: E. coli Rosetta(DE3)pLysS, purified (HisTrap HP, HiTrap Q HP)
- binding result [8]: binds

- binding result (ParB-Q52A): binds
B2: ParA-E117R (natural protein, Myxococcus xanthus DK1622, UniProt Q1CVJ3 1-283, looked up)
chain: T1 sequence with A60D, E117R
notes: ParA of Myxococcus xanthus DK1622 with an exchange in the helix H4/H6/H7 region; source: E. coli Rosetta(DE3)pLysS, purified (as His6-ParA)

- binding result (ParB-Q52A): binds
B3: ParA-D110R (natural protein, Myxococcus xanthus DK1622, UniProt Q1CVJ3 1-283, looked up)
chain: T1 sequence with A60D, D110R
notes: as for B2

- binding result (ParB-Q52A): binds
B4: ParA-D110R/E117R (natural protein, Myxococcus xanthus DK1622, UniProt Q1CVJ3 1-283, looked up)
chain: T1 sequence with A60D, D110R, E117R
notes: ParA of Myxococcus xanthus DK1622 with two exchanges in the helix H4/H6/H7 region; source: E. coli Rosetta(DE3)pLysS, purified (as His6-ParA)

- Kd (ParB (wild type)): ~1000 nM
- binding result (ParB-Q52A-R13A): binds
- binding result (ParB-Q52A-R13K): binds
B5: ParA-R238E (natural protein, Myxococcus xanthus DK1622, UniProt Q1CVJ3 1-283, looked up)
chain: T1 sequence with A60D, R238E
notes: ParA of Myxococcus xanthus DK1622, translation product of ORF MXAN_7477; Purified as His6-ParA; no tag cleavage step is described; also called His6-ParA-R238E; source: E. coli Rosetta(DE3)pLysS, purified (HisTrap HP, HiTrap Q HP)

- binding result (ParB-Q52A): binds
B6: ParA-Y81L (natural protein, Myxococcus xanthus DK1622, UniProt Q1CVJ3 1-283, looked up)
chain: T1 sequence with A60D, Y81L
notes: ParA of Myxococcus xanthus DK1622 with an exchange in the helix H4/H6/H7 region; also called Y81L variant; source: E. coli Rosetta(DE3)pLysS, purified (as His6-ParA)

B7: His6-ParA_(21-274)-D60A (domain or fragment, Myxococcus xanthus DK1622, UniProt Q1CVJ3 21-274, looked up)
chain: VGRIICISNQKGGVGKTTTAINLAASLASAERRTLLVDMAPQGNAGSGLGIKQDNITGTIYEALLNDRPIQELLHPTELRYLQVVPATPDLTGAEVELVNQDNREFRLRDALRPLAAEYDYIIIDCPPSLGLLTLNALAAADSVLIPLQCEYYALEGLSQLTHTIDLVKQGLNPDLKMEGILLTMFDSRANIAHQVVEEVRGYFKKQVFEVIVPRNVRLSECPSFGKPIILYDIKSKGCESYLALGRELMKRDT
notes: For NMR the protein was 2H/13C/15N-labelled; source: E. coli Rosetta(DE3)pLysS, purified (as His6-ParA)
- binding result [9]: binds
